Values of other authors as cited in paper PMC10299984 (Diabetes Therapy, 2023).

Details: 36 healthy participants

For insulin glargine [iGlar], the INS-tmax is given as 12 h.
